Results reported in patent publication US20240043859A1, “HERBICIDE-RESISTANT PROTEIN, AND GENE AND USE THEREOF” (QINGDAO KINGAGROOT CHEMICAL COMPOUND CO., LTD., priority 2020, published 2024).

Assay: Chromogenic reaction of degrading herbicides in bacteria: 2,4-D
Assay type: cell-based, Escherichia coli
Settings: recombinant E. coli expressing the gene, 2,4-D added to the medium; red = phenols
Experimental: To transform the plasmids to be tested, an AAD12-expressing plasmid and a blank control plasmid pET15b were respectively transformed into the protein expression E. coli BL21(DE3) strains. A monoclone was selected and inoculated in a 10 ml centrifuge tube with 3 ml LB medium, and cultivated at 37° C., 200 rpm for 6-8 hours. The culture medium was added with 0.1 mM IPTG and 2 mM α-ketoglutaric acid, and then 0.5 mM 2,4-D. The temperature was switched to 28° C. and the cultivation continued overnight. In the next morning, 200 μL of each bacteria solution was taken and centrifuged to precipitate thallus, 180 μL of the supernatant was taken and added in a 96-well plate, and 20 μL of borate buffer of pH 10 was added. Then the mixture was added with 2 μL of 8% potassium ferricyanide and mixed well, followed by adding 2 μL of 2% 4-aminoantipyrine, and placed at room temperature for 5 min to observe the color and detect the A510 value.
The bacteria solution also appeared red when 2,4-D was directly added into the medium of AAD12-expressing bacteria, as shown in FIG. 1.
2,4-D was added into these bacteria solutions of AAD gene-expressing recombinant E. coli and cultivation was continued for color development.

Molecule | Chromogenic reaction of degrading herbicides in bacteria: 2,4-D
QYD66: AAD-like candidate enzyme; 100.00% identical to US20140194292-0002 (protein, Synthetic polypeptide, QYD66, D66) MERHAMSNGKQIVRIEPLPGKTFGAVVTGVRLSELDEDTFSLLYREWLQYALLIFPAQYLTDSQQRDAASKFGCLVEGLEAVEISNLLPTGEVRAAPDDDMMKIIRGNMQWHQDNTYMPLQAKGALFSAKRVPSSGGETGFADMRAAWDALDTETQDRLANLSAYHSLAQSQKNLGEDVKSSDSEYIGYGLDVSTVPRRSLLKIHPETDRKTLAVGRHAFGVTGMAEQESTQFVSDLIDFAVADESRTYHHIWSEGDAILWDNRCLMHRACPWNFSQPRVMLHSRIAGDPSTEAALNS | Yes
QYD61: AAD-like candidate enzyme; 100.00% identical to US20190024109-0292 (protein, Synthetic polypeptide, QYD61, D61) MSVVANPLHPLFAAGVEDIDLREALGSTEVREIERLMDEKSVLVFRGQPLSQDQQIAFARNFGPLEGGFIKVNQRPSRFKYAELADISNVSLDGKVAQRDAREVVGNFANQLWHSDSSFQQPAARYSMLSAVVVPPSGGDTEFCDMRAAYDALPRDLQSELEGLRAEHYALNSRFLLGDTDYSEAQRNAMPPVNWPLVRTHAGSGRKFLFIGAHASHVEGLPVAEGRMLLAELLEHATQREFVYRHRWNVGDLVMWDNRCVLHRGRRYDISARRELRRATTLDDAVV | Yes
QYD60: AAD-like candidate enzyme; 100.00% identical to US20160002662-0002 (protein, Synthetic polypeptide, QYD60, D60) MSPAFDIAPLDATFGAVVTGVKLADLDDAGWLDLQAAWLEYALLVFPDQHLTREQQIAFARRFGPLEFEMAAISNVRPDGSLRVESDNDDMMKILKGNMGWHADSTYMPVQAKGAVFSAEVVPSVGGQTGFADMRAAYDALDEDLKARVETLQARHSLHYSQSKLGHQTKAADGEYSGYGLHDGPVPLRPLVKIHPETGRKSLLIGRHAHAIPGLEPAESERLLQQLIDFACQPPRIYHHDWAPGDAVLWDNRCLLHQATPWDMTQKRIMWHSRIAGDPASETALAH | Yes
QYD65: AAD-like candidate enzyme; 100.00% identical to CN103013939-0002 (protein, Synthetic polypeptide, QYD65, D65) MAIAIRQLHPHFVGEVSGVDLRHPLTRDEVAELQAAIDHYAVLVFHDQDIGDEQQLAFALNFGDREKARGGTVTKKEDYRLTTGLNDVSNLGKDGKPLPPDHRTHLFNLGNCLWHSDSSFRPIPAKYSILSARIVNPKGGNTEFADMRAAYDALDEQTKAEIDDLVSEHSLMYSRGSLGFLDYTDEEKKMFKPVRQRLVRTHPAHGRKSLYLSSHAGAVVGMSMPEGRLLLRDLTEHATQPEFVYVHKWRLHDLVMWDNRQTVHRVRRYDQSQPRDMRRATVAGTEPTVAQQAAE | Yes
QYD68: AAD-like candidate enzyme; 100.00% identical to JP2018506305-0002 (protein, Synthetic polypeptide, QYD68, D68) MSPAFDIAPLDATFGAVVTGVKLADLDDAGWLDLQAAWLQHALLIFPGQHLSNDQQITFAKRFGAIERIGGGDIVAISNVKADGTVRQHSPAEWDDMMKVIVGNMAWHADSTYMPVMAQGAVFSAEVVPAVGGRTCFADMRAAYDALDEATRALVHQRSARHSLVYSQSKLGHVQQAGSAYIGYGMDTTATPLRPLVKVHPETGRPSLLIGRHAHAIPGMDAAESERFLEGLVDWACQAPRVHAHQWAAGDVVVWDNRCLLHRAEPWDFKLPRVMWHSRLAGRPETEGAALV | Yes
QYD67: AAD-like candidate enzyme; 100.00% identical to US20180244732-0002 (protein, Synthetic polypeptide, QYD67, D67) MSPAFDIAPLDATFGAVVTGVHLATLDDAGFAALHAAWLQHALLIFPGQHLSNDQQITFAKRFGAIERIGGGDIVAISNVKADGTVRQHSPAEWDDMMKVIVGNMAWHADSTYMPVMAQGAVFSAEVVPAVGGRTCFADMRAAYDALDEATRALVHQRSARHSLVYSQSKLGHVQQAGSAYIGYGMDTTATPLRPLVKVHPETGRPSLLIGRHAHAIPGMDAAESERFLEGLVDWACQAPRVHAHQWAAGDVVVWDNRCLLHRAEPWDFKLPRVMWHSRIAGDPASETALAH | Yes
QYD71: AAD-like candidate enzyme; 100.00% identical to CN109456986-0002 (protein, Synthetic polypeptide, QYD71, D71) MPFQVNQLHPIFAAEMFGCDILKPVTDETRNAVEDAMAKYAVLVIRDQAAASDEDQVRFAKAFGPLELPPDLGMSERTRPTRVHPKLYDVSNLDENGNLDKPDTLRRKFAKGNELFHTDSSFNDLPTKWSMLLAHVVTPTGGNTEFVDTRAAYDALSPSMKEQVEPLSVIHSLTYSRERGGLTGTTVFDRAFPPVTQPLVRTSASGRKALYIGAHAATVVGMDEAAGRTLLDKLISDASRPEYIYSHKWLPGDLVIWDNRCTMHRATEYAYMEDRRDLRRATINEFGEDRVGARPI | Yes
QYD70: AAD-like candidate enzyme; 100.00% identical to US20190017066-0048 (protein, Synthetic polypeptide, QYD70, D70) MHAALTPLTNKYRHIDVQPLTGVLGAEITGVDLREPLDDSTWNEILDAFHTYQVIYFPGQAITNEQHIAFSRRFGPVDPVPILKSIEGYPEVQMIRREANESSRYIGDDWHADSTFLDAPPAAVVMRAIEVPEYGGDTGFLSMYSAWETLSPTMQATIEGLNVVHSATKVFGSLYQATNWRFSGTSVKVMDVDAGDRETVHPLVVTHPVTGRRALYCNQVYCQKIQGMTDAESKSLLQFLYEHATQFDFTCRVRWKKDQVLVWDNLCTMHRAVPDYAGKFRYLTRTTVAGDKPSR | Yes
QYD64: AAD-like candidate enzyme; 100.00% identical to US20180066275-0002 (protein, Synthetic polypeptide, QYD64, D64) MSLQLKPLHPVFGAEASGLDLTRPLSDADVRAVNAAMNEHAVLVFRGQPLTAQQQLDFAKHFGPLDIGLKRVFKRPERLEDERLIDISNVDAQGNIARRDSPKNLSNFANQLWHSDSSFMNPRAAYSMLHCVIKPSWGGNTEFADLRHAYDTLDERTKAEIQDLKAEHFALHTRILLGDDAYTDDQKKEIPPAVWPLADTHPGSGRKVLFVGVHAREIIGWPVAEARMYLSDLLEHATRRENVYVHEWTPGDLVIWDNRSTLHRGRRYDITERRELRRTTINDTPEAMLMAA | Yes
QYD63: AAD-like candidate enzyme; 100.00% identical to US20140179534-0002 (protein, Synthetic polypeptide, QYD63, D63) MSSLELTPLHPLFAAEARGIDIRQPLSPSEVKQINAAMNRYAVLVWRGQPLTGQQQIDFAKAFGPLDLGLKKVFKRPERLEDERLIDISNVDAEGKVARRDSPKNLSNFANQLWHSDSSFQNPRAAYSMLHALVLPSWGGNTEFAELRAAYDALPERTRSEIEGLRAEHYALHTRILLGDEAYTDDQKKAIPPAVWPLAQTHPGSGRKLLFVGVHAREIIGWPVAEGRMFLSDLLEHATRREFVYTHEWQVGDLVMWDNRSTLHRGRRYDIGERRELRRTTIEDVPEATLMAA | Yes
QYD69: AAD-like candidate enzyme; 100.00% identical to US20170211087-0004 (protein, Synthetic polypeptide, QYD69, D69) MAQTTLQITPTGATLGATVTGVHLATLDDAGFAALHAAWLQHALLIFPGQHLSNDQQITFAKRFGAIERIGGGDIVAISNVKADGTVRQHSPAEWDDMMKVIVGNMAWHADSTYMPVMAQGAVFSAEVVPAVGGRTCFADMRAAYDALDEATRALVHQRSARHSLVYSQSKLGHVQQAGSAYIGYGMDTTATPLRPLVKVHPETGRPSLLIGRHAHAIPGMDAAESERFLEGLVDWACQAPRVHAHQWAAGDVVVWDNRCLLHRAEPWDFKLPRVMWHSRLAGRPETEGAALV | Yes
